Test [1] has as its target biotinylated human FcRn (human) (UniProt P55899). Description: BLI; Octet RED96e; biotinylated FcRn on streptavidin biosensors; hu4D5 Fc variants 1000–31.2 nM; PBS pH 6.0, 0.02% Tween 20, room temperature; steady state. (Biolayer interferometry detects binding as a change in optical thickness at a sensor tip.)
Test [2] deals with t-gp68 (truncated gp68 ectodomain, soluble) (HCMV AD169). The test can be described thus: SPR; BIAcore X100; t-gp68-twin strep-FLAG captured (40 RU) on anti-strep Fab; hu4D5 IgG1 Fc variants injected; 2:1 binding kinetics (first constants only) and steady state analysis. A general note: SPR reads the build-up and loss of mass on a sensor chip optically.
The target of test [3] is hu4D5 human IgG1 antibody with Fc variant G2 (human). Description: BLI; Octet RED96e; hu4D5 IgG1 variants on CH1-binding (FAB2G) biosensors; CD16A F158 5000–156.25 nM, V158 2000–62.5 nM; room temperature, PBS pH 7.4, 0.02% Tween 20, 0.1% BSA; steady state.
In test [4] the target is hu4D5 human IgG1 antibody with Fc variant G5 (human). The description is as above.
Test [5] has as its target hu4D5 human IgG1 antibody with wild-type Fc (human). The description is as above.
In test [6] the target is vFcγR on AD169-infected MRC5 cells (Figure 1C). The test can be described thus: flow cytometry on cells. In general terms: A flow cytometer gives signals particle by particle.
Test [7] has as its target human IgG1 Fc (wild type, without Fab arms) (human). The test can be described thus: SPR; BIAcore X100; 200 RU human IgG1 Fc immobilised on CM5; t-gp68-strep-FLAG injected 250–3 nM; 1:1 binding kinetics.
The target is the same in test [8]. Described as above. This is another data set of the same source.
Test [9] has the same target. The test can be described thus: negative-stain electron microscopy; purified Fc, gp34-M and t-gp68 combined in various ratios, complexes purified by SEC; 2 mM Tris pH 8.0, 200 mM NaCl; uranyl acetate.
Test [10] concerns the target HCMV glycoprotein B (gB) on the surface of infected fibroblasts (Human cytomegalovirus AD169, UniProt P06473, strain). Description: flow cytometry on cells; antibody on AD169-, Δ3- or mock-infected MRC5 fibroblasts, on ice; extracellular antibody detected with goat anti-human Fcγ AF647 (anti-mouse Fcγ for SM5–1-mFc). The conditions noted are these: one partner purified.

Where two headings read alike, the source gives them in different places.

biotinylated human FcRn (human), sequence (P55899 24-297, chain 1 of 2): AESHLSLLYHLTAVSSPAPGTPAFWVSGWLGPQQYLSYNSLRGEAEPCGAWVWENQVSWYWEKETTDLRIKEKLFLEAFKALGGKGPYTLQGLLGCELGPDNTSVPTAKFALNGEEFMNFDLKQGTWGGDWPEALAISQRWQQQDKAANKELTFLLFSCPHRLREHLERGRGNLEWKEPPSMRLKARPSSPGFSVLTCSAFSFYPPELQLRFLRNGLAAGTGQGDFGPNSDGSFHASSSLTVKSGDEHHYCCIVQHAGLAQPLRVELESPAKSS
biotinylated human FcRn (human), sequence (P61769 21-119, chain 2 of 2, further chain): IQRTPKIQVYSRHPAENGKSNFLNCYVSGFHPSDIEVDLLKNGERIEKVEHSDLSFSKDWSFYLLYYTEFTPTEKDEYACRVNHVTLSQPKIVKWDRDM

Usually Kd stands for the concentration at which binding is half-saturated. A lower Kd goes with tighter binding. “hu4D5 human IgG1 antibody with wild-type Fc” gave a Kd in test [1] of 50 nM. In test [2], this molecule had a Kd of 80 nM; a ka1 (first step of a 2:1 fit) of 65000 M⁻¹ s⁻¹; a kd1 (first step of a 2:1 fit) of 0.004 s⁻¹; a kinetic KD from ka1 and kd1 of a 2:1 fit of 69 nM.

As for “human CD16A F158 (from UniProt P08637 17-208) (receptor)”, the dissociation constant Kd in test [3] is 360 nM; in test [4] it was 990 nM; in test [5], 1160 nM.

Consider isotype control 2B1 human IgG1 antibody, for which the percent of cells positive for extracellular antibody in test [6] worked out at 30 % cells.

As a reminder, the koff is a measure of how fast the partners let go of each other. Read a high koff as fast dissociation. As usually defined, the kon is the rate constant with which the complex forms. Read a high kon as fast association. Usually stoichiometry N stands for a count of units in the complex or per binding partner. In test [7], “t-gp68 (truncated gp68 ectodomain, soluble) (domain or fragment)” yielded a Kd of 110 nM, a koff of 0.005 s⁻¹ and a kon of 40000 M⁻¹ s⁻¹. This molecule also registered a koff in test [8] of 0.004 s⁻¹. Besides, the stoichiometry N in test [9] is 2.

B1: SM5–1 human IgG1 antibody with wild-type Fc (antibody, V domains shown)
VH: QVQLVQSGAEVRKPGASVKVSCKASGYSLKDHYMVWVRQAPGQGLEWMGWINPQSGGTGYGQKFQGRVTMTRDTSTNTAYMILSSLRSDDTAVYFCARDGAKTVSNSGLSLLYYHNRLDAWGQGTMVTVSS
VL: QSVLTQPPSVSAAPGQMVTISCSGSSSNIGKNYVSWYQQLPGAAPKLLIFDNNKRPSGTPDRFSGSKSGTSATLVITGLQTGDEADYYCGTPDRSLSVIFGGGTKVTVL
notes: also called SM5–1 WT; human SM5–1; source: ExpiCHO, purified (Protein A)
For B1, the “percent of cells positive for extracellular antibody” value (from here on “percent of cells positive”) in test [10] is roughly 70%.

B2: SM5–1 human IgG1 antibody with Fc variant G2 (antibody, V domains shown)
VH: QVQLVQSGAEVRKPGASVKVSCKASGYSLKDHYMVWVRQAPGQGLEWMGWINPQSGGTGYGQKFQGRVTMTRDTSTNTAYMILSSLRSDDTAVYFCARDGAKTVSNSGLSLLYYHNRLDAWGQGTMVTVSS
VL: QSVLTQPPSVSAAPGQMVTISCSGSSSNIGKNYVSWYQQLPGAAPKLLIFDNNKRPSGTPDRFSGSKSGTSATLVITGLQTGDEADYYCGTPDRSLSVIFGGGTKVTVL
notes: IgG1; also called SM5–1 with G2; source: ExpiCHO, purified (Protein A)
For the molecule B2, in test [10], the “percent of cells positive” value was roughly 70%.

B3: SM5–1 human IgG1 antibody with Fc variant G5 (antibody, V domains shown)
VH: QVQLVQSGAEVRKPGASVKVSCKASGYSLKDHYMVWVRQAPGQGLEWMGWINPQSGGTGYGQKFQGRVTMTRDTSTNTAYMILSSLRSDDTAVYFCARDGAKTVSNSGLSLLYYHNRLDAWGQGTMVTVSS
VL: QSVLTQPPSVSAAPGQMVTISCSGSSSNIGKNYVSWYQQLPGAAPKLLIFDNNKRPSGTPDRFSGSKSGTSATLVITGLQTGDEADYYCGTPDRSLSVIFGGGTKVTVL
notes: IgG1; also called SM5–1 with G5; source: ExpiCHO, purified (Protein A)
Regarding B3, in test [10], the “percent of cells positive” value is roughly 70%.

The record behind these values is article PMC12831531 (Cell reports, 2025).
